Experimental data reported in IntAct's records for PubMed 22322943.

B1: Axin-2 (Mus musculus), O88566 (parent)
chain: MSSAVLVTLLPDPSSSFREDAPRPPVPGEEGETPPCQPSVGKVQSTKPMPVSSNARRNEDGLGEPEGRASPDSPLTRWTKSLHSLLGDQDGAYLFRTFLEREKCVDTLDFWFACNGFRQMNLKDTKTLRVAKAIYKRYIENNSVVSKQLKPATKTYIRDGIKKQQIGSVMFDQAQTEIQAVMEENAYQVFLTSDIYLEYVRSGGENTAYMSNGGLGSLKVLCGYLPTLNEEEEWTCADLKCKLSPTVVGLSSKTLRATASVRSTETAENGFRSFKRSDPVNPYHVGSGYVFAPATSANDSELSSDALTDDSMSMTDSSVDGVPPYRMGSKKQLQREMHRSVKANGQVSLPHFPRTHRLPKEMTPVEPAAFAAELISRLEKLKLELESRHSLEERLQQIREDEEKEGSEQALSSRDGAPVQHPLALLPSGSYEEDPQTILDDHLSRVLKTPGCQSPGVGRYSPRSRSPDHHHQHHHHQQCHTLLPTGGKLPPVAACPLLGGKSFLTKQTTKHVHHHYIHHHAVPKTKEEIEAEATQRVRCLCPGGTDYYCYSKCKSHPKAPEPLPGEQFCGSRGGTLPKRNAKGTEPGLALSARDGGMSSAAGAPQLPGEEGDRSQDVWQWMLESERQSKSKPHSAQSIRKSYPLESACAAPGERVSRHHLLGASGHSRSVARAHPFTQDPAMPPLTPPNTLAQLEEACRRLAEVSKPQKQRCCVASQQRDRNHSAAGQAGASPFANPSLAPEDHKEPKKLASVHALQASELVVTYFFCGEEIPYRRMLKAQSLTLGHFKEQLSKKGNYRYYFKKASDEFACGAVFEEIWDDETVLPMYEGRILGKVERID

Variants of: B1
Conditions: with cdc20_human CDC20, Q12834
cdc20_human CDC20, Q12834, sequence (Q12834 whole entry): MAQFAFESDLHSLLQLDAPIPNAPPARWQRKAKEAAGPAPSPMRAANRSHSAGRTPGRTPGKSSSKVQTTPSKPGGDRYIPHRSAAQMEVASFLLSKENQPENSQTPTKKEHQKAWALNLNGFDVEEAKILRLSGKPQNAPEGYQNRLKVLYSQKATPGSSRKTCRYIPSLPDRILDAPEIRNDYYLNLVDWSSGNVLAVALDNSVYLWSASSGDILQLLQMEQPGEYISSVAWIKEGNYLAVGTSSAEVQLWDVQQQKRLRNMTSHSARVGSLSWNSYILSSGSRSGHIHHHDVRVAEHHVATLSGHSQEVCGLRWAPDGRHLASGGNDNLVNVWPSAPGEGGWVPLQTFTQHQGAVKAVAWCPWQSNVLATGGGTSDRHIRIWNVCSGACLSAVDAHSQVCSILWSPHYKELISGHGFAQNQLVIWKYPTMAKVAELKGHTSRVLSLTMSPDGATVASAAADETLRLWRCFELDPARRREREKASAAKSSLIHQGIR

Variant | effect of a mutation on the interaction
R775A | decreasing interaction
R657A | decreasing interaction
L660A | decreasing interaction
R776A | decreasing interaction
L391A | decreasing interaction
R388A | decreasing interaction
L778A | decreasing interaction

Variants of: B1
Conditions: with cdc20_human CDC20, Q12834
Remark: another data set of the same source

Variant | effect of a mutation on the interaction
R96A | decreasing interaction
L99A | decreasing interaction
